This experiment addresses cys-protein G conjugated to a peptide nucleic acid strand (PG-PNA).

For the substance “RBD, Fc (SARS-CoV-2 spike receptor binding domain with Fc) (from UniProt P0DTC2) (Fc fusion)”, the stoichiometry N was 2.82 RBD:PG.

In general, stoichiometry N refers to the number of molecules, sites or subunits per partner or assembly.
